From article PMC2800223

Target: GST-HuD (UniProt P26378)
Experiment: filter binding

Chain of GST-HuD (P26378 whole entry): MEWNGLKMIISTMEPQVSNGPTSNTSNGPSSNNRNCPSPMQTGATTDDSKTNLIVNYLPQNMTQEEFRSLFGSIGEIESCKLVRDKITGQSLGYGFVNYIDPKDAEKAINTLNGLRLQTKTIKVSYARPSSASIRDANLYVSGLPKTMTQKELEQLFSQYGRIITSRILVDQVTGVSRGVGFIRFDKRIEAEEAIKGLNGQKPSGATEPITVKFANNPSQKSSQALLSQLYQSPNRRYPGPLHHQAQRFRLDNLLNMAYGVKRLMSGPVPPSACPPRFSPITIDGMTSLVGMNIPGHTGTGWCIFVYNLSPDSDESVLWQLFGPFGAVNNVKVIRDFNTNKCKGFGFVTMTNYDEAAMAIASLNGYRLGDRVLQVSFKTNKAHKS

Sequence	Kd [nM]
UUUUGUUUUGUUU [motif 2 oligoribonucleotide]	6.9
CCCUCCCUCUCUC [motif 1 oligoribonucleotide]	27.3
